Assays:
[1] = molecular target: T1, rRv3167c (TetR-like regulator) (Mycobacterium tuberculosis, UniProt O53317 1-208); assay: EMSA; 30 uM protein, 200 nM DNA, 5 mM MgCl2; ITC: 10 mM phosphate pH 7.2, 136 mM NaCl, 4 mM KCl, 25 C ([…]; settings: protein: recombinant; tags: N-terminal 6xHis (pET28c, NdeI/BamHI); chain copies: 2; blunt
T1 sequence: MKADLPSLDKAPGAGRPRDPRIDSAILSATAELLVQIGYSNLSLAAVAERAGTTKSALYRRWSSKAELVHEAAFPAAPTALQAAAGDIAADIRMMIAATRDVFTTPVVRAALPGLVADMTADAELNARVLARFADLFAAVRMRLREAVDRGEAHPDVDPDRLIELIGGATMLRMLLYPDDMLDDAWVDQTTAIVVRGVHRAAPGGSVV

SEC = molecular target: the molecule itself; assay: SEC
[2] = molecular target: T1, rRv3167c (TetR-like regulator); assay: ITC; ITC: 10 mM phosphate pH 7.2, 136 mM NaCl, 4 mM KCl, 25 C ([…]; settings: protein: recombinant; tags: N-terminal 6xHis (pET28c, NdeI/BamHI); chain copies: 2; blunt

B1: randomized control DNA (Negative+/-) (dsDNA)
DNA 1: AGCCTTGCAGGCTAATCGGTAGCTA
DNA 2: TAGCTACCGATTAGCCTGCAAGGCT
binding result [1]: no binding

B2: recombinant Rv3167c (rRv3167c), N-terminal 6-histidine tag (natural protein)
chain: MKADLPSLDKAPGAGRPRDPRIDSAILSATAELLVQIGYSNLSLAAVAERAGTTKSALYRRWSSKAELVHEAAFPAAPTALQAAAGDIAADIRMMIAATRDVFTTPVVRAALPGLVADMTADAELNARVLARFADLFAAVRMRLREAVDRGEAHPDVDPDRLIELIGGATMLRMLLYPDDMLDDAWVDQTTAIVVRGVHRAAPGGSVV
notes: also called purified Rv3167c
stoichiometry N (SEC): 2

B3: palRv3167c (dsDNA)
DNA 1: TAACGCTACCTAAAGTAGCGTAA
DNA 2: TTACGCTACTTTAGGTAGCGTTA
Kd [2]: 12.3 ± 3.2 µM

From PMC5340868 (mBio, 2017)
